According to publication PMC7018998:

Legend:
ErbB2 [1] = target: ErbB2 (UniProt P04626); assay: two-colour single molecule co-localisation and tracking (TOCCSL, TIR microscopy); live CHO-ErbB2-ErbB3 cells; AF488-ErbB3-Fab and AF647-ErbB3-Fab for homodimers, AF488-ErbB2-Fab and AF647-ErbB3-Fab for heterodimers; no HRG, no pertuzumab; room temperature; details: other: two-colour single molecule co-localisation and tracking (TOCCSL, TIR microscopy)
ErbB2 [2] = target: ErbB2 (UniProt P04626); assay: two-colour single molecule co-localisation and tracking (TOCCSL, TIR microscopy); live CHO-ErbB2-ErbB3 cells; AF488-ErbB3-Fab and AF647-ErbB3-Fab for homodimers, AF488-ErbB2-Fab and AF647-ErbB3-Fab for heterodimers; with 200 ng/mL (25 nM) HRG, no pertuzumab; room temperature; details: other: two-colour single molecule co-localisation and tracking (TOCCSL, TIR microscopy)

Chain of ErbB3 (chain): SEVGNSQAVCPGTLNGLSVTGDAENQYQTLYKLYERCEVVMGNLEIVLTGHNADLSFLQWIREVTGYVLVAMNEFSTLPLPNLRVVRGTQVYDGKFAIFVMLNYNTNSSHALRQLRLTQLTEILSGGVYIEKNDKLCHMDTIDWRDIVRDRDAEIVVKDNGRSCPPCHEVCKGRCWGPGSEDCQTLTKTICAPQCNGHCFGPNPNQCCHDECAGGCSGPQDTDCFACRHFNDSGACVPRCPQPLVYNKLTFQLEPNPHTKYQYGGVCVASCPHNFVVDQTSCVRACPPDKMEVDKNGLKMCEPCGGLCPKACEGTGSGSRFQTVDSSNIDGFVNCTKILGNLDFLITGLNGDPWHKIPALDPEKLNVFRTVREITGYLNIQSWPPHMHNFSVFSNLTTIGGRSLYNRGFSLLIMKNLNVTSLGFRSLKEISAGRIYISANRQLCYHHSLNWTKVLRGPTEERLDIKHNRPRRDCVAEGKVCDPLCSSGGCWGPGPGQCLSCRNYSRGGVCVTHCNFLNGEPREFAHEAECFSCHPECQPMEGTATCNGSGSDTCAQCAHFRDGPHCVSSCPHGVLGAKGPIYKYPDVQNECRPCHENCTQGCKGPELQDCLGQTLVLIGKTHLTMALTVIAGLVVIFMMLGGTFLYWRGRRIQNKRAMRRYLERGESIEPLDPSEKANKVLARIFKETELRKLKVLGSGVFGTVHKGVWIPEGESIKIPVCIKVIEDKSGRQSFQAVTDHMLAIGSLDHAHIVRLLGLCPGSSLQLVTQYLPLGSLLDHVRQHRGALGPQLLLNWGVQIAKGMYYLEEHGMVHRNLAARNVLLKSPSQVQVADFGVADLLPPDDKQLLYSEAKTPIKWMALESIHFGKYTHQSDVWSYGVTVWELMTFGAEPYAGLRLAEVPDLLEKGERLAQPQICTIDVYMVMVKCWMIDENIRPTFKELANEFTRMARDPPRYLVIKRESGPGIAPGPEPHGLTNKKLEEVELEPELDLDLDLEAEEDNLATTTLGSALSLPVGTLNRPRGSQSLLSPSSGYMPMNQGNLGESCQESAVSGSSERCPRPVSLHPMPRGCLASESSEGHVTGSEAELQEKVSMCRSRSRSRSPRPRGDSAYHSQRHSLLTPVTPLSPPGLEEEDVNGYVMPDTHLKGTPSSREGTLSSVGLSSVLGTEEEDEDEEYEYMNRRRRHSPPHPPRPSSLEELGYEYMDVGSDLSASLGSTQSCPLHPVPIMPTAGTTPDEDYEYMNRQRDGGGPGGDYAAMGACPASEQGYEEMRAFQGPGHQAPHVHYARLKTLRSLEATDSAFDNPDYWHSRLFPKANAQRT

For ErbB3, the “percent of ErbB3 in ErbB3/ErbB2 heterodimers” value (ErbB2 [1]) was “∼70% of ErbB3 being associated to ErbB3/ErbB2 heterodimers” and the “percent of ErbB3 in ErbB3/ErbB2 heterodimers” value (ErbB2 [2]) was “a further increase of ErbB3/ErbB2 heterodimerization (∼90%”.
